Experimental findings from article PMC9688318, “Construction of a Versatile, Programmable RNA-Binding Protein Using Designer PPR Proteins and Its Application for Splicing Control in Mammalian Cells” are described below.

In one data set the target is MS2 protein (UniProt P03612 2-130). The experiment in a line: RBP-ELISA; purified and lysate, dose-dependent; EMSA: 20 mM Tris-HCl pH 8.0, 150 mM NaCl, 0.5% NP-40, 1 mM DTT, 1 mM EDTA, 0.2 pmol biotin-RNA in 10 uL, 6% PAGE in 0.5x TBE; temperature not stated; RBP-ELISA. The following applies: protein: recombinant; tags: 6xHis; Nano-luc; chain copies: 2; label: 5'-biotin; hairpin.

Data set [1] concerns the target T1, PPR2.0 t23 (synthetic).
T1 chain: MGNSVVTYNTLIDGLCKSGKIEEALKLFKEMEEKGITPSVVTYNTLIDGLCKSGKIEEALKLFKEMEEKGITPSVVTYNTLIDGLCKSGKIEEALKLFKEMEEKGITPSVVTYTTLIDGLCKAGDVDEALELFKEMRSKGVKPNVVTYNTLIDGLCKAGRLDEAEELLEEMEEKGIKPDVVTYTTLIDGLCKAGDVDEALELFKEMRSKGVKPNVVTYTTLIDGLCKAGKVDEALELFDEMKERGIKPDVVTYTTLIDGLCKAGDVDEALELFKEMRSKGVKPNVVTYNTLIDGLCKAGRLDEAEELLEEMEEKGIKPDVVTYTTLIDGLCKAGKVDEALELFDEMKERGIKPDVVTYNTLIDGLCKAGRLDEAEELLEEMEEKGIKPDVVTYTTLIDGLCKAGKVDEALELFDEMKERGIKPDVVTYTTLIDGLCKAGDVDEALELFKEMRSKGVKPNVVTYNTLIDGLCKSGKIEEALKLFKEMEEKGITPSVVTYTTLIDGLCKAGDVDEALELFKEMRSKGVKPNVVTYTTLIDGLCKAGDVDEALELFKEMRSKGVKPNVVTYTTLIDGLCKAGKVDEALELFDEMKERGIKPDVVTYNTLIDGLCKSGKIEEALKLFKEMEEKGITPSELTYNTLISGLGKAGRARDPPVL
The experiment in a line: EMSA; 20 mM Tris-HCl pH 8.0, 150 mM NaCl, 0.5% NP-40, 1 mM DTT, 1 mM EDTA; 20 nM RNA. The settings on record: tags: N-terminal SBP, C-terminal His6, kept; label: biotin. In general terms: In EMSA bound probe runs differently from free probe, usually more slowly.

Data set [2] concerns the target T1, PPR2.0 t23. The data set is described as follows: 20 mM Tris-HCl pH 8.0, 150 mM NaCl, 0.5% NP-40, 1 mM DTT. The following applies: tags: N-terminal NanoLuc, C-terminal His6, kept; label: biotin.
Data set [3] deals with T2, PPR2.0 t2 (synthetic).
T2 chain: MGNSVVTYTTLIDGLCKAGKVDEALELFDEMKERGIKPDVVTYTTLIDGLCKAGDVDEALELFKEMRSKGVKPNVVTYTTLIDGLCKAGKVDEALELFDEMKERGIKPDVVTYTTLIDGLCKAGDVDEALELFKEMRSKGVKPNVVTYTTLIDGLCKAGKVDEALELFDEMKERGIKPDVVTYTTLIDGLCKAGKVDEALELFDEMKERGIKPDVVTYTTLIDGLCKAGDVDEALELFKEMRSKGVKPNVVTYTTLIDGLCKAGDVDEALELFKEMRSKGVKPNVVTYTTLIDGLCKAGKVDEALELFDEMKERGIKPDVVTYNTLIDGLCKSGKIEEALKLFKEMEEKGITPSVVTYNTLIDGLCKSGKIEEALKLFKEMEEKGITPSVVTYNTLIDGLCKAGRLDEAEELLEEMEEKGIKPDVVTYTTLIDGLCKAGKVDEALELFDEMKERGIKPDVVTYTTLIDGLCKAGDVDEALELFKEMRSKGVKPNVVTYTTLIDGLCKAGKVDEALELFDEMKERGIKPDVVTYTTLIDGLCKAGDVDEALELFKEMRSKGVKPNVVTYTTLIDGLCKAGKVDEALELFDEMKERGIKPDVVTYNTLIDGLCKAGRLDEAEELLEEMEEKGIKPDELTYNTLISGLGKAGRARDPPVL
The experiment in a line: EMSA; 20 mM Tris-HCl pH 8.0, 150 mM NaCl, 0.5% NP-40, 1 mM DTT, 1 mM EDTA; 20 nM RNA. The following applies: tags: N-terminal SBP, C-terminal His6, kept; label: biotin.

Data set [4] concerns the target T2, PPR2.0 t2. The data set is described as follows: 20 mM Tris-HCl pH 8.0, 150 mM NaCl, 0.5% NP-40, 1 mM DTT. The settings on record: tags: N-terminal NanoLuc, C-terminal His6, kept; label: biotin.
The target of data set [5] is T3, PPR2.0 t19 (synthetic).
T3 chain: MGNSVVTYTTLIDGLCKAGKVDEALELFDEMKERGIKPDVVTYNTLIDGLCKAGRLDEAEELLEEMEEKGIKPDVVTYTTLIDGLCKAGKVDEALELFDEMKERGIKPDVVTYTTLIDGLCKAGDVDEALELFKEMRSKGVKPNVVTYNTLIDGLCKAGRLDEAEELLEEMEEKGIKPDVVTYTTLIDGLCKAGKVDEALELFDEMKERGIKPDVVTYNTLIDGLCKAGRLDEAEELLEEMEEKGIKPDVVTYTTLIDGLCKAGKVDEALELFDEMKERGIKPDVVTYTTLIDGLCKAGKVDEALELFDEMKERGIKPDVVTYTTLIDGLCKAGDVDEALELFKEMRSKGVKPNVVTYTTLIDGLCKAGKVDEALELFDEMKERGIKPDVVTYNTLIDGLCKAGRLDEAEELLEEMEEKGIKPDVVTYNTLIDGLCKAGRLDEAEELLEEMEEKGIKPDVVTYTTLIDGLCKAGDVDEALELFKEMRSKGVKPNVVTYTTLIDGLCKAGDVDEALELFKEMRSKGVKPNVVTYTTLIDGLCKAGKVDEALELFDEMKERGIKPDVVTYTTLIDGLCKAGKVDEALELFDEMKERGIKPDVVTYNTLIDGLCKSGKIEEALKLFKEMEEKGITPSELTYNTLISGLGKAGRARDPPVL
The data set is described as follows: EMSA; 20 mM Tris-HCl pH 8.0, 150 mM NaCl, 0.5% NP-40, 1 mM DTT, 1 mM EDTA; 20 nM RNA. The following applies: tags: N-terminal SBP, C-terminal His6, kept; label: biotin.

For data set [6], the target named is T3, PPR2.0 t19. The data set is described as follows: 20 mM Tris-HCl pH 8.0, 150 mM NaCl, 0.5% NP-40, 1 mM DTT. The following applies: tags: N-terminal NanoLuc, C-terminal His6, kept; label: biotin.
The target of data set [7] is T4, PPR2.0 t1 (synthetic).
T4 chain: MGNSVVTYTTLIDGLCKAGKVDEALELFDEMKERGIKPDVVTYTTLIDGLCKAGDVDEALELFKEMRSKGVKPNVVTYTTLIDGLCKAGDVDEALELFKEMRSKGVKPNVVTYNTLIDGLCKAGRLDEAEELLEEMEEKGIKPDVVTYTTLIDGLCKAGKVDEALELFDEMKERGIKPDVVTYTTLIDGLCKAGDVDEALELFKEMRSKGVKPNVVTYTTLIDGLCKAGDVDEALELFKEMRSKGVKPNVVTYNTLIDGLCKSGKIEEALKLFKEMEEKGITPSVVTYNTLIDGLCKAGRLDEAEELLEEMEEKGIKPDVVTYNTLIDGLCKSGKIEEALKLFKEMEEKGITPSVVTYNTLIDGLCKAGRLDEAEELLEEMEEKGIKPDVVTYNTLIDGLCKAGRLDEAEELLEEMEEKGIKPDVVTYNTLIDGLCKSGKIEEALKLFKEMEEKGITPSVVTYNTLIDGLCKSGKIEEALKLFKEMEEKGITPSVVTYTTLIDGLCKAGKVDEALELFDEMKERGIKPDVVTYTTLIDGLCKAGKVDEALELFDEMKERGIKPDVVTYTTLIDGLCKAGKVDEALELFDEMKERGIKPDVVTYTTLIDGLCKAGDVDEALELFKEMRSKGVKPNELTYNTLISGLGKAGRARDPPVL
The data set is described as follows: EMSA; 20 mM Tris-HCl pH 8.0, 150 mM NaCl, 0.5% NP-40, 1 mM DTT, 1 mM EDTA; 20 nM RNA. The following applies: tags: N-terminal SBP, C-terminal His6, kept; label: biotin.

The target of data set [8] is T4, PPR2.0 t1. The data set is described as follows: 20 mM Tris-HCl pH 8.0, 150 mM NaCl, 0.5% NP-40, 1 mM DTT. The settings on record: tags: N-terminal NanoLuc, C-terminal His6, kept; label: biotin.
Data set [9] deals with T5, PPR2.0 t3 (synthetic).
T5 chain: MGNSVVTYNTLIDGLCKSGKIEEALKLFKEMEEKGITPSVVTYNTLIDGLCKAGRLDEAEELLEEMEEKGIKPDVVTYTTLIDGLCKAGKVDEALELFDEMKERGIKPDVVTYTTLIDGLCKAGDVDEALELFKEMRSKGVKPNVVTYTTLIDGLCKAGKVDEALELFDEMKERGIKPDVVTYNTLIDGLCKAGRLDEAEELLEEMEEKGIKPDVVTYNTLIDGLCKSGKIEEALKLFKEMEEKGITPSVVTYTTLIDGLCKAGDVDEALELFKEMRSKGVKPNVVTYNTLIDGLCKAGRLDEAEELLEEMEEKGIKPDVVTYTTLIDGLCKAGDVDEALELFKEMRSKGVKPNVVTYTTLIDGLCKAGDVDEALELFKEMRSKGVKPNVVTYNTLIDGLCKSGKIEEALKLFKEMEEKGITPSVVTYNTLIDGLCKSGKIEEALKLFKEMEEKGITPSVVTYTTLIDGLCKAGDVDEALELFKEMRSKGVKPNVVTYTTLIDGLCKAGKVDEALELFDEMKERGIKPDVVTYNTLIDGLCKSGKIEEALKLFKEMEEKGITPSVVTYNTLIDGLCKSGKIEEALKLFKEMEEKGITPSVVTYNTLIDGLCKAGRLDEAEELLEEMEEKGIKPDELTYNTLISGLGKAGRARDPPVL
The data set is described as follows: EMSA; 20 mM Tris-HCl pH 8.0, 150 mM NaCl, 0.5% NP-40, 1 mM DTT, 1 mM EDTA; 20 nM RNA. The settings on record: tags: N-terminal SBP, C-terminal His6, kept; label: biotin.

Data set [10] has as its target T5, PPR2.0 t3. The experiment in a line: 20 mM Tris-HCl pH 8.0, 150 mM NaCl, 0.5% NP-40, 1 mM DTT. The following applies: tags: N-terminal NanoLuc, C-terminal His6, kept; label: biotin.
Another data set concerns the target T6, PPR2.0 t24 (synthetic).
T6 chain: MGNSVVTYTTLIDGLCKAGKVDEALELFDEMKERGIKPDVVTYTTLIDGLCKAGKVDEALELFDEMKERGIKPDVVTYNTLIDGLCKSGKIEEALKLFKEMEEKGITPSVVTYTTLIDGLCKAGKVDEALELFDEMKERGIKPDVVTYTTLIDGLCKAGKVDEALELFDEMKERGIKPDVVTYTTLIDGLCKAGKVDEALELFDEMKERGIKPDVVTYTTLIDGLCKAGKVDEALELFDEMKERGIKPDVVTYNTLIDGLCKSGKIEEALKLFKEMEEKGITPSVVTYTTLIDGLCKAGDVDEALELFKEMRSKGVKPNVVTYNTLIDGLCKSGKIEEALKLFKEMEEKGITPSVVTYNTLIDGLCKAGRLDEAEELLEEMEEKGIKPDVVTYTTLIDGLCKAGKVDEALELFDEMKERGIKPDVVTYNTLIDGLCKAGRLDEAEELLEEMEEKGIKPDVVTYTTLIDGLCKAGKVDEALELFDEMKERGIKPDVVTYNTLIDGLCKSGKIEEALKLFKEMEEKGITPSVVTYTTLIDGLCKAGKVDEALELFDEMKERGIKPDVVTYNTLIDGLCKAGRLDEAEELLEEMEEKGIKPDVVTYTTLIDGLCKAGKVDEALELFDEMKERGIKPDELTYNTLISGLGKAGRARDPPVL
The experiment in a line: EMSA; 20 mM Tris-HCl pH 8.0, 150 mM NaCl, 0.5% NP-40, 1 mM DTT, 1 mM EDTA; 20 nM RNA. The settings on record: tags: N-terminal SBP, C-terminal His6, kept; label: biotin.

Chain of MS2 protein (P03612 2-130): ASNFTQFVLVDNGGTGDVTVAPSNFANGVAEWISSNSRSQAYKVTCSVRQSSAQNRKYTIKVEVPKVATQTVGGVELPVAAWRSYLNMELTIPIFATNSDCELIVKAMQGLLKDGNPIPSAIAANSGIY

For the molecule AGAAAACAUGAGGAUCACCCAUGUCUGCAG (structured_RNA) [Probe_MS2], in the data set with MS2 protein, the binding result is “binds”.
In turn, GACAUGCCCCAUAGAUGUGACAAGCGACUG (ssRNA) [Probe_t23] had a Kd with PPR2.0 t23 [1] of 10.4 nM. Moreover, in the data set with PPR2.0 t23 [2], the binding signal is 3.27e+07 RBP-ELISA luminescence, CPS.
GACAUGCGAGAGGAAGCCUGAGAGUGACUG (ssRNA) [Probe_t2] yielded a Kd with PPR2.0 t2 [3] of 4 nM. For the same molecule, the binding signal with PPR2.0 t2 [4] is 5.68e+07 RBP-ELISA luminescence, CPS.
In the data set with PPR2.0 t19 [5], GACAUGCGUGAUGUGGAGUUAAGGCGACUG (ssRNA) [Probe_t19] came in with a Kd of 173 nM. The binding signal with PPR2.0 t19 [6] is 1.19e+07 RBP-ELISA luminescence, CPS.
Turning to GACAUGCGAAUGAACUCUUCCGGGAGACUG (ssRNA) [Probe_t1], binding with PPR2.0 t1 [7] was put at a Kd of 3.45 nM. Moreover, in the data set with PPR2.0 t1 [8], the binding signal was 6.64e+07 RBP-ELISA luminescence, CPS.
GACAUGCCUGAGUCAUAACCAGCCUGACUG (ssRNA) [Probe_t3] yielded a Kd with PPR2.0 t3 [9] of 59.2 nM. The binding signal with PPR2.0 t3 [10] was 3.35e+07 RBP-ELISA luminescence, CPS.
In the case of GACAUGCGGCGGGGCACUGUGCGUGGACUG (ssRNA) [Probe_t24], the affinity with PPR2.0 t24, expressed as Kd, was 11 nM.

By Kd is commonly meant the free concentration of one partner at which half of the binding sites on the other are occupied at equilibrium, for simple one-to-one binding. Higher therefore signals lower affinity.
